Biological target: TopBP1 (UniProt Q92547)
Experiment: anti-GFP nanobody IP, TopBP1 immunoblot
Details: reference: wild type; sites T969,S1001

Treslin/TICRR (from UniProt Q7Z2Z1) 2PM (T969A/S1001A)
binding against the reference: lost

— publication PMC8807876
